For 7 molecules, K d(app): hTRX concentration (0-10 uM) giving half-maximal activation of PAD4 (citrullination of BAEE) results are on record in PMC6396667.

Positions count from the first letter of the chain named. Names and notes keep the numbering of the source.

To fix the notation:
B1: C35S-hTRX (enzyme)
chain: MVKQIESKTAFQEALDAAGDKLVVVDFSATWCGPSKMIKPFFHSLSEKYSNVIFLEVDVDDCQDVASECEVKCMPTFQFFKKGQKVGEFSGANKEKLEATINELV
B2: C62S-hTRX (enzyme)
chain: B1 chain with S35C, C62S
B3: C73S-hTRX (enzyme)
chain: B1 chain with S35C, C73S
B4: C62/69S-hTRX (enzyme)
chain: B1 chain with S35C, C62S, C69S
B5: C69S-hTRX (enzyme)
chain: B1 chain with S35C, C69S
B6: C32/35S-hTRX (enzyme)
chain: B1 chain with C32S
B7: IAA-treated hTRX (thiol-free variant) (enzyme)
chain: B1 chain with S35C
modifications: all cysteine residues chemically modified with iodoacetamide

The target of this experiment is human protein arginine deiminase 4 (PAD4) (human) (UniProt Q9UM07).
UniProt Q9UM07, sequence (Q9UM07 whole entry): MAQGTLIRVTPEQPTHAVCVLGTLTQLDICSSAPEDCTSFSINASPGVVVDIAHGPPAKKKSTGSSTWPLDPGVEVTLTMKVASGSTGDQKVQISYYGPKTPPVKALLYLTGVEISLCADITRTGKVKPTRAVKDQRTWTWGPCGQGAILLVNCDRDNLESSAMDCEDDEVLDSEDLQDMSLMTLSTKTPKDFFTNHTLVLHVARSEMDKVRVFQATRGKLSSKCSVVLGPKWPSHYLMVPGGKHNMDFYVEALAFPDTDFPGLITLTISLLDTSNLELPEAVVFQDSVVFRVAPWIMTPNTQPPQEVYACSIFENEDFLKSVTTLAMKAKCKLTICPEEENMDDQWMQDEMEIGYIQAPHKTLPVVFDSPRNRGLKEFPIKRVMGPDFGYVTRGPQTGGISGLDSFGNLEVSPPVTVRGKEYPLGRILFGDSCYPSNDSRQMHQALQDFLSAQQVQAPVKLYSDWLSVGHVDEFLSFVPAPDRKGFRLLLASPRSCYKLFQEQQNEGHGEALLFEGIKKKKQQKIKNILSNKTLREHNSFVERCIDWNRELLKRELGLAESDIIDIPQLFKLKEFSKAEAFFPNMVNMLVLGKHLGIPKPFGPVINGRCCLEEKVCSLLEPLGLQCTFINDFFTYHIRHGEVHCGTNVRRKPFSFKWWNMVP
With B1, the K d(app): hTRX concentration (0-10 uM) giving half-maximal activation of PAD4 (citrullination of BAEE) turned out to be 1170 nM.

B2 yielded a K d(app): hTRX concentration (0-10 uM) giving half-maximal activation of PAD4 (citrullination of BAEE) of 1140 nM.

For B3, the K d(app): hTRX concentration (0-10 uM) giving half-maximal activation of PAD4 (citrullination of BAEE) amounted to 780 nM.

As for B4, the K d(app): hTRX concentration (0-10 uM) giving half-maximal activation of PAD4 (citrullination of BAEE) was found to be 610 nM.

Consider B5, for which the K d(app): hTRX concentration (0-10 uM) giving half-maximal activation of PAD4 (citrullination of BAEE) stood at 1380 nM.

As for B6, the K d(app): hTRX concentration (0-10 uM) giving half-maximal activation of PAD4 (citrullination of BAEE) turned out to be 440 nM.

On to B7, for which the K d(app): hTRX concentration (0-10 uM) giving half-maximal activation of PAD4 (citrullination of BAEE) was 620 nM.
